Results reported in paper PMC4919469.

Experiments:
Cdc42Δ7Q61L (human) = Cdc42Δ7Q61L (human) (UniProt P60953); test: scintillation proximity assay; competition; free effector domain titrated into 30 nM Cdc42·[3H]GTP and 30 nM GST-ACK (in Fig. 7B GST-ACK or GST-WASP GBD) immobilised on a fluoromicrosphere; Kd from competition binding isotherms
[1] = biological target: full-length Cdc42Q61L (human) (UniProt P60953); test: as above
Sequence of full-length Cdc42Q61L (human) (P60953 whole entry Q61L): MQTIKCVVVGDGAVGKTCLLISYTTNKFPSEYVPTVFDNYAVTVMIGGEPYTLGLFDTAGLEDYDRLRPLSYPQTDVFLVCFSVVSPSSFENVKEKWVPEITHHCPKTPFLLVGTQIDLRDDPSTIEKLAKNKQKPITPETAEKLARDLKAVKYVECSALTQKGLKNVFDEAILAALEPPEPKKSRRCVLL

Sequence of Cdc42Δ7Q61L (human) (P60953 1-184 Q61L): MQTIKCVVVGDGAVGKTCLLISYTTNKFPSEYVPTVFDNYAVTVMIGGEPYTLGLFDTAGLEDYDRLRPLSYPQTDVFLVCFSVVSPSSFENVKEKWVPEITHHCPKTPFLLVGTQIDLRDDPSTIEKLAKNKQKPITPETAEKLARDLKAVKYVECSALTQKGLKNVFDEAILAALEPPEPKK

## free ACK GBD (domain or fragment)
Cdc42Δ7Q61L (human)
  Kd: 32 nM
[1]
  Kd: 11 nM
